B1: High mobility group protein B1 (Rattus norvegicus (Rat)), P63159 (parent)
chain: MGKGDPKKPRGKMSSYAFFVQTCREEHKKKHPDASVNFSEFSKKCSERWKTMSAKEKGKFEDMAKADKARYEREMKTYIPPKGETKKKFKDPNAPKRPPSAFFLFCSEYRPKIKGEHPGLSIGDVAKKLGEMWNNTAADDKQPYEKKAAKLKEKYEKDIAAYRAKGKPDAAKKGVVKAEKSKKKKEEEDDEEDEEDEEEEEEEEDEDEEEDDDDE

Variants of: B1
Conditions: with becn1_mouse Becn1, O88597
Chain of becn1_mouse Becn1, O88597 (O88597 whole entry): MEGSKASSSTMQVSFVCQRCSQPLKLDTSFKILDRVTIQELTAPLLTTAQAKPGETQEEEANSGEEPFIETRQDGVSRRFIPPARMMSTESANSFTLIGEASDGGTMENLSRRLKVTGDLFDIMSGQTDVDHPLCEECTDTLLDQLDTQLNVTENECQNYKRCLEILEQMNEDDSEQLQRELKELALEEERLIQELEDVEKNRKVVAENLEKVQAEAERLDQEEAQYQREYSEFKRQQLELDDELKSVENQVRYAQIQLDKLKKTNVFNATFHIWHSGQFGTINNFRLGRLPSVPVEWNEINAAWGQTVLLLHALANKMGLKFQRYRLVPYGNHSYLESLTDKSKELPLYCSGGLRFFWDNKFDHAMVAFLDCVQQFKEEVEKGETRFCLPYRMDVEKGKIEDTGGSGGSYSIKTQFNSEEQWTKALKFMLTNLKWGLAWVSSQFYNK

| effect of a mutation on the interaction | Variant |
| --- | --- |
| disrupting interaction | MGKGDPKKPRGKMSSYAFFVQTSREEHKKKHPDASVNFSEFSKKCSERWKTMSAKEKGKFEDMAKADKARYEREMKTYIPPKGETKKKFKDPNAPKRPPSAFFLFCSEYRPKIKGEHPGLSIGDVAKKLGEMWNNTAADDKQPYEKKAAKLKEKYEKDIAAYRAKGKPDAAKKGVVKAEKSKKKKEEEDDEEDEEDEEEEEEEEDEDEEEDDDDE [C23S] |
| disrupting interaction | MGKGDPKKPRGKMSSYAFFVQTCREEHKKKHPDASVNFSEFSKKSSERWKTMSAKEKGKFEDMAKADKARYEREMKTYIPPKGETKKKFKDPNAPKRPPSAFFLFCSEYRPKIKGEHPGLSIGDVAKKLGEMWNNTAADDKQPYEKKAAKLKEKYEKDIAAYRAKGKPDAAKKGVVKAEKSKKKKEEEDDEEDEEDEEEEEEEEDEDEEEDDDDE [C45S] |
